Kd data for two substances are collected here from publication PMC8377413.

The target in experiment [1] is Osj10gBTF3 (recombinant, Expi293) (rice). As to the kind of experiment: MST; Monolith NT.115; 100 nM target protein labelled with His-Tag Labeling Kit RED-tris-NTA 2nd generation, serial dilutions of unlabelled ligand; PBS with 0.05% Tween 20; 35% MST power, 60% LED power, 24°C.
Experiment [2] has as its target OsPPR676 (recombinant, Expi293) (rice). The description is as above.

The term Kd denotes the constant that tells how readily two partners part at equilibrium. With “OsCpn60 (recombinant, Expi293) (natural protein)”, the dissociation constant Kd came out at 9.8 µM in experiment [1] and 15.1 µM in experiment [2].
On to “OsPPR676 (recombinant, Expi293) (natural protein)”, for which the equilibrium dissociation constant (Kd) in experiment [1] came to 24.3 µM.
